Assay results published in a protein production outcome set (Wang et al. 2014).

Assay: label from the status in PepcDB records
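Further: failed if final PepcDB status was selected cloned or expressed and not failed if soluble or beyond.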

## MKPAKVSLLHRLLQCLKQCVDCNTVNRFTAINIFVNILLISAVISFPYSAAAHGATQSGDQYSSFEELERNEDPASYRITEKNARVPMLIMAIHGGGIEPGTSEIANEVSKNYSLYLFEGLKSSGNTDLHITSTRFDEPAALAITASHQYVMSLHGYYSEDRDIKVGGTDRAKIRILVDELNRSGFAAEMLGTDDKYAGTHPNNIANKSLSGLSIQLEMSTGFRKSLFDRFTLKDRAATQNETFYRFTKLLTDFIHENYEEDGGDFPSAKIKHPLQV
  protein production: failed

## HEETECPLRLAVCQHCDLELSILKLKEHEDYCGARTELCGNCGRNVLVKDLKTHPEVCGREG
  protein production: not failed

## MKNKFIFITVVSILLIAAGIFTTIAMANANSVVVKAEVLNVRSGPGLAYDVTSQARKNEVLRVVGEENQWYKVQLDNGNSGWVASWLVENTDVSAASNSIAIVSSDGGLNVREKPSTSSTSLGLLNNGDQVTVTSQQNGWAQIQYNGKSAWVSSQYLTIRESVTKVDESELQTVTIRDDSTNIRNKPGRDGAVIEKANSGQGFAIQGVQGDWYKIRTTSGEEGYVANWVVDVSDKGQTSSPRSKTTKLSEATIVIDPGHGGNDPGAKGANGTIEKEMTLKTAKKLKEKLESRGAKVILTRNSDKYVSLKSRTNVAAENKADVFISIHFDSLEDSSKGVSGQTTYYYDNSDKSLAESINTTLGNDLPTTNRGSRVGDYYVVRENSQPAVLLELGYLSSAKDERNINSASYRSQIADSVTDGLSNYFSN
  protein production: failed

## MRLTTLWQNRSPGDRHLSTYFCFAAVRLLLVFVPQLGYVHPDEFFQSVEVMTGDHFRLEHTRTWEFNNSLPVRSIVLPFALLRIPWSFYEFVAECLKAWWQLELLGTYAYVVFPRLIYTLISFSNDYCLFRICRLYGLRFEIRLLAMGSSWILLVFGTRTFSNSLEMAMCSWLLCLVSECMLRTNTVVYKKEFLEEKYDKAESISERVRIWKLKNSLPAHNLQHLMAMSTICVAGVFNRPTFLLFGAPMVFFWLLRGMGTRSITFRDFNLRIALFCLCALPALVLFIFCDSLYYQHLTLGELHMMHLSIDNFVFTPWNFIKANLDSAQTASHGVHPCYVHLMVNMPMLFNVLALASLGAFAQLLLRFFRAEYQVLPRFQSIVSLMSGAIFVPLFFLSLINHQEPRFLLPVTFPLILLHAPKLITGFSAKYPFQKDHPLLRLFYDKLLSSKASGPYLLKIWYVSNVALTLFFGFIHQAGVYPLAADISHVIATKPAATHVHLITSHIYSLPLHLINIPSSRVLHFNRLTHQRYRRPRDFYMYEYGGLPLDSLLQKVKLISGSCEVKKSGPSRRRYKLYLAIPASLSADLHEALVHSNASSYLNFELLKVFYPHLSTEAFPHLQGRHPCDVDAPHWAHDDLRGTCSAEQLPAFSFAYLNKQFSSFVHQLGLALYEIDVTRNKPRYVSLAYSGCSPTKGYFLLFIQFLICLALCIAAAQAGFIASPVTTYAAAPAYAASYAAPVAYSAPVATYAAAAPAYSTYAAAAPAYSTYAAAAPAYSTYAAAAPAYTASVYSAPAYTAPVTTYAAGAAYAAPVTTYSAPAIVSPILKKK
  protein production: failed

## MYQVIIFALLFAGISSGFITFRIMGMRMAPHFGVLILALIATAANIMSGNVTLNYVAVALQVLTGISAYTQFLPVLRDSFQTAPLYACHLSTVTVAAVLAAASVPL
  protein production: failed

## MKRNNKSAIALIALSLLALSSGAAFAGHHWGNNDGMWQQGGSPLTTEQQATAQKIYDDYYTQTSALRQQLISKRYEYNALLTASSPDTAKINAVAKEMESLGQKLDEQRVKRDVAMAQAGIPRGAGMGYGGCGGYGGGYHRGGGHMGMGNW
  protein production: not failed

## MIDKQSGIPIYIQIQSEIKKKMEDGVWKVGTSIPAERQLAEMFHVSRMTVRQAIQGLVDDNILQRRVGAGTFIAEKKLTERLEAVTSFTNLMLQEGKVPSTRIVSYGIRPASTQEQEALQLPENSNVMKIERIRYGDRVPILYEVAAIPEKIASLLTKEDIMDSLYKAIELKLGQPIGEAEQIMEASLVSEKIAPYLDVKLGSPVMKLRQITTLEDGRPFEFTRSQYVGSRFQFVARIKQ
  protein production: failed

## MTTLRTLMAVSLVLNLAACGFKLRGQVSELPFERVYITAPAGLTIGSDLERVISTHTRAKVVNKAEKSEAIIQIVHAIREKRILSLSESGRVREFELVYRVAARLLDAHNAELASLQEIRLTRILPFLDAQELAKAAEEEMLYKDMQKDAVQQILRQVSAVTSAGLEHHHHHH
  protein production: not failed

## MNINVAELLNGNYILLLFVVLALGLCLGKLRLGSIQLGNSIGVLVVSLLLGQQHFSINTDALNLGFMLFIFCVGVEAGPNFFSIFFRDGKNYLMLALVMVGSALVIALGLGKLFGWDIGLTAGMLAGSMTSTPVLVGAGDTLRHSGMESRQLSLALDNLSLGYALTYLIGLVSLIVGARYLPKLQHQDLQTSAQQIARERGLDTDANRKVYLPVIRAYRVGPELVAWTDGKNLRELGIYRQTGCYIERIRRNGILANPDGDAVLQMGDEIALVGYPDAHARLDPSFRNGKEVFDRDLLDMRIVTEEVVVKNHNAVGKRLAQLKLTDHGCFLNRVIRSQIEMPIDDNVVLNKGDVLQVSGDARRVKTIADRIGFISIHSQVTDLLAFCAFFVIGLMIGMITFQFSTFSFGMGNAAGLLFAGIMLGFMRANHPTFGYIPQGALSMVKEFGLMVFMAGVGLSAGSGINNGLGAIGGQMLIAGLIVSLVPVVICFLFGAYVLRMNRALLFGAMMGARTCAPAMEIISDTARSNIPALGYAGTYAIANVLLTLAGTIIVMVWPGLG
  protein production: failed

## PNRRADDNATIRVTNLSEDTRETDLQELFRPFGSISRIYLAKDKTTGQSKGFAFISFHRREDAARAIAGVSGFGYDHLILNVEWAKPSTN
  protein production: not failed

## NSGKRLIQRSIERALDFRKEVQRLREESDGWFFDIWQPEAVDKAECWPVAPGEDWHGFKDADADHMYLDPVKVTILTPGMDEQGNMDEEGIPAALVAKFLDERGVVVEKTGPYNLLFLFSIGIDKTRAMGLLRGLTEFKRAYDLNLRVKNMLPDLYAEDPDFYRNMRIQDLAQGIHRLIRQHQ
  protein production: failed

## MKICHRYIAWQVLTGMVIATAILLPLFSFFDLLDQLDDVGKGTYTTWDAFLYTVMLMPRRFIQIAPFIALLGTVGALGALAVNLELVAMRVAGLSPLMIGLAPVGIGGLLIASTIALEYFVAPQFQQQATILRAVALEQGAELGKGLGIWTRNERNILRIGEMLHKGRATDIEVIHFDGEGSMTAHVHAWYADIFDESLWKLHDVTIRTFSPDRITSRKAHILQWHSFLGPDDIATLTKSPESLTPIELVKHAEFLRATGQKADAYVMALWRKVGGAIMTIAMILVAIPFIFGSVREGLGGKLILAALMGISIYLFDQIIANIGLVFQLNPIVVSVVPGMVLIAVAAHWLLRRTF
  protein production: failed

## MDALLILGGLLLMVAGYIWVIVLAFGTGLLWGYGSLFPPVALAYIGVHWRTARKGVGLAALGCIPLVVGLALLASHDAARLEAILSLRWLKPEARPPAELAIALSGEFNGKPFAPQSGELIGGVLSLRQGHDFYAQRELQIRLPAQPLGALRLDVLPEDGGALPEVELSWLQPDQDLPEARRLLRGYTLHLDLRPKAPNRLEGEFHLSLPSDYRTTLSGHVELYTDRLRYRHGKVDLGYDSDDTLALVLRDYLQRRFASRDVSLVRAPSWRAASHARPLRIEALVAGQAQVLELTLEKNARREWTVRGDAFPALPAEPATVAAAAPPEPQALPAPGNATLDLELVQVEPQRYSQRLVKATTVRGRIAEGRFTGLDSEGRLVIRREMPGAGEASYLLRPAEIARLELLER
  protein production: failed

## MSDLLDTVRGLAKKTDSKILMVVLDGVGGLPLTVNGDTELATARTPNLDALAQESQLGQLELVGAGITPGSGPGHLSLFGYDPLKYVVGRGALSAVGIGVKLNRGDVAVRGNFATLGAGRLILDRRAGRPSDEKNAEIVAKLRAAIPEIDGVAVEVYTESEHRFVVVFRAPEGQPLGANISDVDPQVTGVEPKTAIANDPSSEVTAGLINTFVARAEVALADEPQVNGVLFRGYSDVPHFPSFEDAYQLKAACIASYPMYKGLASLVGMDVLPVEGHEDALEGKVKALRENWAKYDFFYFHIKKTDSTGEDGDFAEKVHKIELFDELLPQLLELQPDVIAVVGDHSTPSKLKSHSWHPVPLLIRSNYGRRDPAQRYTEEEAARGTLGLRHGPDLMPLLMANALKLNKYGALEHHHHHH
  protein production: not failed

## MITDCCPGFGSVAKYIAVSMLEASFDVASMAKTSTKVFILEVMGRHAGWIAAAGGLASNEDHEVPIIILFPEVTFDQEKFLAKTDHYVKEYGYCTVVVSEGVKGTDGKFLSDQGLRDAFGHAQLGGVAPVIANIVKNGLGLEHHHHHH
  protein production: not failed

## MDYKVSVLIVCYNQEKYIKKALESVLSQKVNFNYEIVVCDDCSSDRTFNILQEYKSKLGSKLNLIRNYKNLGITLNYKNGFKNCKGEYIAVLEGDDYWIQKSKLKRQVSFLESNRDCSLVFNKIVLDYGDEKINNLIYPFNDIRKKFSARELVRSNFIQNFSCCMYRKSSIRKLRESIYDMVVYDWMFNMAVAQFGLIGYIPNYMTSHRILKSGLWSGKSKMENLQMISKCIDQYDSFFKYKYRKEFSQNKQEVLQALRRLVMVNENGLEHHHHHH
  protein production: not failed

## MDRNLKIFITVMLILSVISQFLPFKRDAVSLINVITNLAAFMGLSYACIYSRKVYPHLYLTLLLLSAAQFFSFLGDFTWFILESILSLNPFPSVADLFYLLYYPIFAAGIFTIPIKRYSDLRSIIDLLIILVASASAAWVFLLEPTVFAGGDFTEVLVSTLYVLGDLLIVFMIMDLIINKLGHLRSRTLHVFLASIIILLAADISFTYQNLTGIYAGGTPQDLLWAFSYILLLIAVNEFFKEDWSKPLYVEKKVTAVTYTPYIFIILFYLLTAYSVIKGGAEKSTVLLVSLGFIIVLFILRQHLSMKENMALLNDVENERRRAENYLEVAGSLIMVLDEKTRVKLINRRGLEILECDAGEVAGKNWFMTFVPPEDRGWREKLYTEKISSGSKGYHLTGEILTCKGDRKTVTWHVVFLREDGEFRGSIISGDDITELQRATRALEMSEMRYREIFELAPSPIISVGDDLIIRDCNRRAESVLGYQRGELIGRNLMDLIHPEDAGEDFEGERRLLRSNGDVIYADIGVARVGDERIIIIEDQTEIRRSLQEKELLLREIHHRVKNNLQIISSLLSIQERQLESEELSDVLRESRERIRSIALVHEHLYRSTNLRTIRIRNYLNNILSKLSQGQTHGKDVRISSSIEDLEFNLETSLPIGLMVNELVSNSLKHSGADNITVELRSLNGTLELTVKDDGIGLESPEVLEKSGSMGWYLIRALTDQLDGELKIETEDGLSVSLRFRELGYRERY
  protein production: failed

## MFVQSALHQLKVAVDTSIQMLDQYTEIDLKIAPIQSKRSLFEMYAHLSLICHADLLILNGSTEKELHTFYKEQTPETIAQMQKTMIQGYDLLSKTFLSYSNEQLAEMKTAYWGISYSRFEWLLEIVAHFYHHRGQIHILLCEHMKDPNIPLFQ
  protein production: not failed

## MFVFGAYWFDCGERAVLPANSRGALRPQCTRLRFWRGRYWHRGAVSALRRVRPLSASTPSPRVLDGSQSLADTPDNVQQLLQHMSQELDSVVQSMVHLEEYALEQVEKLKGAMEADLRKLALYEEEQAFAQKLTEQLQKKEGAVFEAMRHFLFHVVGLQEQTVAITNELQVLHEFVSENHERVELVLESLRERGLFGSRQDVFEGEVKKKLDRFDPEI
  protein production: failed

## MESPPMFNSVEDECRYWKERSKQYHKEWTDVKQEYDEFVEQSREMEIEMDATLDQKQSIIKDLTAKLTMFERENESLKLKLESHGIDMSNMEKQLETVKKDRDTMKVYLRQLEQKNDDLERAHRILNESIENFEKMLDQAYEKNALLELEVDEKGLLQEKLQRLMDETRDLKQELNVKSRFTPVVNGTSVPTANDTNTVNSSMNSSASLPNGIVANGELVKHDNAVATRATSVSVNALNGSLVNRNEYNQQHSLKSDGDETEDVPREWSANAAATPLLPAIHTSGAGRTALLLAGCRVVWILQFSVIHKPQIRNPIT
  protein production: failed
